Results taken from US20150344570A1 (published 2015).
Substitutions are numbered along the chain they refer to. Names may count otherwise.

T1: FcgRIIa R (FcγRIIa type R) extracellular domain with C-terminal His tag (human, UniProt P12318 34-217)
T1 construct: extracellular domain; also called FcγRIIa R; not shown: His tag attached to the C terminus
T1 sequence (looked up): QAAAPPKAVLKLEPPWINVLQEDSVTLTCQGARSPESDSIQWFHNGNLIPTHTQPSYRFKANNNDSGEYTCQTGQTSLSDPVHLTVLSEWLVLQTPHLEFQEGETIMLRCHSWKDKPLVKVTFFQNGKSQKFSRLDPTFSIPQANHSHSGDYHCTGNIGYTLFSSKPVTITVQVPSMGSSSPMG

T2: FcgRIIa H (FcγRIIa type H) extracellular domain with C-terminal His tag (human, UniProt P12318 34-217)
T2 construct: extracellular domain; also called FcγRIIa H; not shown: His tag attached to the C terminus
T2 sequence (looked up): T1 sequence (looked up) with R134H

T3: FcgRIIb (FcγRIIb) extracellular domain with C-terminal His tag (human, UniProt P31994 43-217)
T3 construct: extracellular domain; not shown: His tag attached to the C terminus
T3 sequence (looked up): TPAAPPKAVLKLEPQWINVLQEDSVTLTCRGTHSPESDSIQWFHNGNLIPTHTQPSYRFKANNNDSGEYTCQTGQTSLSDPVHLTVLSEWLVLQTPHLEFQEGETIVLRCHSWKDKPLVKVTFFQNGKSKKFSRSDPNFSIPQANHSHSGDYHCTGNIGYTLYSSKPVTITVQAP

B1: H240-Kn061/H240-Hl071/L73-k0 variant with Y235A in H240-Kn061 (antibody, human IgG1, kappa)
heavy 1: QDQLVQSGAEVKKPGASVKVSCKASGFNIKDTYIQWVRQAPGQGLEWMGRIDPLRKQTKYREKFEGRVTITADTSTNTAYMELSSLRSEDTAVYYCVRSGREFDYWGQGTLVTVSSASTKGPSVFPLAPSSKSTSGGTAALGCLVKDYFPEPVTVSWNSGALTSGVHTFPAVLQSSGLYSLSSVVTVPSSSLGTQTYICNVNHKPSNTKVDKKVEPKSCDKTHTCPPCPAPEYAWGPSVFLFPPKPKDTLMISRTPEVTCVVVDVSDEDPEVKFNWYVDGVEVHNAKTKPREEQYNATYRVVSVLTVLHQDWLNGKEYKCKVSNKALPAPIEKTISKAKGQPREPQVCTLPPSRDELTKNQVSLWCLVKGFYPSDIAVEWESNGQPENNYKTTPPVLDSDGSFFLYSKLTVDKSRWQQGNVFSCSVMHEALHNHYTQKSLSLSP
heavy 2: QDQLVQSGAEVKKPGASVKVSCKASGFNIKDTYIQWVRQAPGQGLEWMGRIDPLRKQTKYREKFEGRVTITADTSTNTAYMELSSLRSEDTAVYYCVRSGREFDYWGQGTLVTVSSASTKGPSVFPLAPSSKSTSGGTAALGCLVKDYFPEPVTVSWNSGALTSGVHTFPAVLQSSGLYSLSSVVTVPSSSLGTQTYICNVNHKPSNTKVDKKVEPKSCDKTHTCPPCPAPELLGGPSVFLFPPKPKDTLMISRTPEVTCVVVDVSHEDPEVKFNWYVDGVEVHNAKTKPREEQYNSTYRVVSVLTVLHQDWLNGKEYKCKVSNDALPMPIEETISKAKGQPREPQVYTLPPSRCELTKNQVSLSCAVKGFYPSDIAVEWESNGQPENNYKTTPPVLDSDGSFFLVSKLTVDKSRWQQGNVFSCSVMHEALHNHYTQKSLSLSP
light: DIQMTQSPSSLSASVGDRVTITCRASQDIHKYIAWYQQKPGQAPRLLIQYTSTLQPGVPSRFSGSGSGTDYTFTISSLQPEDIATYYCLQYEQLRTFGGGTKVEIKRTVAAPSVFIFPPSDEQLKSGTASVVCLLNNFYPREAKVQWKVDNALQSGNSQESVTEQDSKDSTYSLSSTLTLSKADYEKHKVYACEVTHQGLSSPVTKSFNRGEC
notes: anti-epiregulin heterodimerized IgG1; also called H240-Kn061 Y235A
B2: H240-Kn061/H240-Hl071/L73-k0 variant with Y235Q in H240-Kn061 (antibody, human IgG1, kappa)
heavy 1: B1 heavy 1 with A234Q
heavy 2: B1 heavy 2
light: B1 light
notes: anti-epiregulin heterodimerized IgG1; also called H240-Kn061 Y235Q
B3: H240-Kn061/H240-Hl071/L73-k0 variant with S239M in H240-Kn061 (antibody, human IgG1, kappa)
heavy 1: B1 heavy 1 with A234Y, S238M
heavy 2: B1 heavy 2
light: B1 light
notes: anti-epiregulin heterodimerized IgG1; also called H240-Kn061 S239M
B4: H240-Kn061/H240-Hl071/L73-k0 variant with Y234E in H240-Kn061 (antibody, human IgG1, kappa)
heavy 1: B1 heavy 1 with Y233E, A234Y
heavy 2: B1 heavy 2
light: B1 light
notes: anti-epiregulin heterodimerized IgG1; also called H240-Kn061 Y234E
B5: H240-Kn061/H240-Hl071/L73-k0 variant with Y235P in H240-Kn061 (antibody, human IgG1, kappa)
heavy 1: B1 heavy 1 with A234P
heavy 2: B1 heavy 2
light: B1 light
notes: anti-epiregulin heterodimerized IgG1; also called H240-Kn061 Y235P
B6: H240-Kn061/H240-Hl071/L73-k0 variant with V240H in H240-Hl071 (antibody, human IgG1, kappa)
heavy 1: B1 heavy 1 with A234Y
heavy 2: B1 heavy 2 with V239H
light: B1 light
notes: anti-epiregulin heterodimerized IgG1; also called H240-Hl071 V240H
B7: H240-Kn061/H240-Hl071/L73-k0 variant with S239I in H240-Kn061 (antibody, human IgG1, kappa)
heavy 1: B1 heavy 1 with A234Y, S238I
heavy 2: B1 heavy 2
light: B1 light
notes: anti-epiregulin heterodimerized IgG1; also called H240-Kn061 S239I
B8: H240-Kn061/H240-Hl071/L73-k0 variant with S239L in H240-Kn061 (antibody, human IgG1, kappa)
heavy 1: B1 heavy 1 with A234Y, S238L
heavy 2: B1 heavy 2
light: B1 light
notes: anti-epiregulin heterodimerized IgG1; also called H240-Kn061 S239L
B9: H240-Kn061/H240-Hl071/L73-k0 variant with Y234L in H240-Kn061 (antibody, human IgG1, kappa)
heavy 1: B1 heavy 1 with Y233L, A234Y
heavy 2: B1 heavy 2
light: B1 light
notes: anti-epiregulin heterodimerized IgG1; also called H240-Kn061 Y234L
B10: H240-Kn061/H240-Hl071/L73-k0 variant with F241N in H240-Hl071 (antibody, human IgG1, kappa)
heavy 1: B1 heavy 1 with A234Y
heavy 2: B1 heavy 2 with F240N
light: B1 light
notes: anti-epiregulin heterodimerized IgG1; also called H240-Hl071 F241N
B11: H240-Kn061/H240-Hl071/L73-k0 variant with Y235I in H240-Kn061 (antibody, human IgG1, kappa)
heavy 1: B1 heavy 1 with A234I
heavy 2: B1 heavy 2
light: B1 light
notes: anti-epiregulin heterodimerized IgG1; also called H240-Kn061 Y235I
B12: H240-Kn061/H240-Hl071/L73-k0 variant with S239V in H240-Kn061 (antibody, human IgG1, kappa)
heavy 1: B1 heavy 1 with A234Y, S238V
heavy 2: B1 heavy 2
light: B1 light
notes: anti-epiregulin heterodimerized IgG1; also called H240-Kn061 S239V
B13: H240-Kn061/H240-Hl071/L73-k0 variant with Y234I in H240-Kn061 (antibody, human IgG1, kappa)
heavy 1: B1 heavy 1 with Y233I, A234Y
heavy 2: B1 heavy 2
light: B1 light
notes: anti-epiregulin heterodimerized IgG1; also called H240-Kn061 Y234I

These binders were tested against T1, FcgRIIa R (FcγRIIa type R) … (assay: SPR (Biacore); KD of H240-Kn061/H240-Hl071/L73-k0 divided by KD of the variant).
Description: (§1) The antibodies were assessed for the binding to each FcgR. […] The resultant value was defined as relative KD, and used as an assessment indicator.
(§2) Analysis of interaction between objective antibody and the FcγR was carried out using Biacore T100 (GE Healthcare), Biacore T200, Biacore A100, and Biacore 4000. HBS-EP+ (GE Healthcare) was used as the running buffer, and the measurement temperature was set to 25° C. Chips produced by immobilizing the antigen peptide by the amine coupling method to a Series S sensor Chip CM5 (GE Healthcare), chips produced by allowing preliminarily biotinylated antigen peptides to interact with and immobilize onto a Series S Sensor Chip SA (certified) (GE Healthcare), chips produced by immobilizing Protein L (ACTIGEN, BioVision) to Series S Sencor Chip CM5 (GE Healthcare), or chips produced by immobilizing Protein A/G (Thermo Scientific) to Series S Sencor Chip CM5 (GE Healthcare) were used. Antibodies of interest were captured onto these chips, and allowed to interact to each FcγR diluted with running buffer.

Row | relative KD | Binder
1 | 0.5 ratio | B1
2 | 0.8 ratio | B2
3 | 3.2 ratio | B3
4 | 1.4 ratio | B4
5 | 0.6 ratio | B5
6 | 0.7 ratio | B6
7 | 4.4 ratio | B7
8 | 4.8 ratio | B8
9 | 2.2 ratio | B9
10 | 3.8 ratio | B10
11 | 0.7 ratio | B11
12 | 4.2 ratio | B12
13 | 4.1 ratio | B13

What follows are binders tested against T2, FcgRIIa H (FcγRIIa type H) … in the same assay as above.
Description: as §1, §2

Row | relative KD | Binder
14 | 0.5 ratio | B1
15 | 0.4 ratio | B2
16 | 2 ratio | B3
17 | 0.7 ratio | B4
18 | 0.4 ratio | B5
19 | 0.8 ratio | B6
20 | 2.1 ratio | B7
21 | 2.4 ratio | B8
22 | 1.5 ratio | B9
23 | 3.5 ratio | B10
24 | 0.4 ratio | B11
25 | 2.4 ratio | B12
26 | 2.6 ratio | B13

Each binder was assayed against T3, FcgRIIb (FcγRIIb) extracellular domain … in the same assay as above.
Description: as §1, §2

Row | relative KD | Binder
27 | 0.2 ratio | B1
28 | 0.1 ratio | B2
29 | 2.2 ratio | B3
30 | 0.5 ratio | B4
31 | 0.5 ratio | B5
32 | 0.3 ratio | B6
33 | 3.1 ratio | B7
34 | 3.4 ratio | B8
35 | 3.5 ratio | B9
36 | 1.1 ratio | B10
37 | 0.2 ratio | B11
38 | 3.4 ratio | B12
39 | 7.7 ratio | B13

What follows are binders tested against T4, FcgRIIIa F (FcγRIIIa type F) extracellular domain with C-terminal His tag (human, UniProt P08637 17-208) in the same assay as above.
T4 construct: extracellular domain; also called FcγRIIIa F; 3aF; not shown: His tag attached to the C terminus
Description: as §1, §2

T4 sequence (P08637 17-208): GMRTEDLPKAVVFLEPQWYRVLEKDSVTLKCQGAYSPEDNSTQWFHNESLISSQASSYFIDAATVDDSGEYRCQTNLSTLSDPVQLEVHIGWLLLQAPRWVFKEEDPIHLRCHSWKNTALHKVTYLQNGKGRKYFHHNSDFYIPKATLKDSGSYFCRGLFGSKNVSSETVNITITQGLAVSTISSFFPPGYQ

Row | relative KD | Binder
40 | 1.2 ratio | B1
41 | 1 ratio | B2
42 | 2.2 ratio | B3
43 | 1.9 ratio | B4
44 | 1.1 ratio | B5
45 | 1.3 ratio | B6
46 | 3 ratio | B7
47 | 3.4 ratio | B8
48 | 1.1 ratio | B9
49 | 0.8 ratio | B10
50 | 1.3 ratio | B11
51 | 2.4 ratio | B12
52 | 1.2 ratio | B13

The binders below were run against T5, FcgRIIIa V (FcγRIIIa type V) extracellular domain with C-terminal His tag (human, UniProt P08637 17-208) in the same assay as above.
T5 construct: extracellular domain; also called FcγRIIIa V; not shown: His tag attached to the C terminus
Description: as §1, §2

T5 sequence (P08637 17-208 F176V limits assumed): as the sequence (P08637 17-208) above, with F160V counted along it

Row | relative KD | Binder
53 | 1.3 ratio | B1
54 | 1.3 ratio | B2
55 | 2.8 ratio | B3
56 | 1.6 ratio | B4
57 | 1.5 ratio | B5
58 | 1 ratio | B6
59 | 3.4 ratio | B7
60 | 3.7 ratio | B8
61 | 1.2 ratio | B9
62 | 0.7 ratio | B10
63 | 1.6 ratio | B11
64 | 2.9 ratio | B12
65 | 1.3 ratio | B13

Target: T3, FcgRIIb (FcγRIIb) extracellular domain …
Test: as above
Remark: another data set of the same source
Description: as §1, §2

Row | relative KD | Binder
66 | 0.2 ratio | B1
67 | 0.1 ratio | B2
68 | 0.5 ratio | B4
69 | 0.5 ratio | B5
70 | 0.2 ratio | B11

Target: T4, FcgRIIIa F (FcγRIIIa type F) …
Test: as above
Remark: another data set of the same source
Description: as §1, §2

Row | relative KD | Binder
71 | 1.2 ratio | B1
72 | 1 ratio | B2
73 | 1.9 ratio | B4
74 | 1.1 ratio | B5
75 | 1.3 ratio | B11

Target: T5, FcgRIIIa V (FcγRIIIa type V) …
Test: as above
Remark: another data set of the same source
Description: as §1, §2

Row | relative KD | Binder
76 | 1.3 ratio | B1
77 | 1.3 ratio | B2
78 | 1.6 ratio | B4
79 | 1.5 ratio | B5
80 | 1.6 ratio | B11
